The supplement of paper PMC10567573

B1: PLK2 (parent)
chain: MELLRTITYQPAASTKMCEQALGK

Variants of: B1
Test: protein stability index of a GFP-peptide fusion (GPS, HEK-293T) (PSI 1-6); higher = more stable
Details: c terminus: a fixed tail appended
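Also: lentivirally expressed fusions sorted by FACS into six bins by GFP to DsRed ratio, PSI derived from sequencing read proportions per bin multiplied by bin number.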

Variant | protein stability index
MELLRTITYQPAASTKICEQALGK | 2.18
MELLRTITYQPAASTKWCEQALGK | 2.46
MELLRTITYQPAASTKYCEQALGK | 1.8
MELLRTITYQPAASTKRCEQALGK | 2.68
MELLRTITYQPAASTKLCEQALGK | 2.84
MELLRTITYQPAASTKECEQALGK | 1.86
MELLRTITYQPAASTKDCEQALGK | 2.02
MELLRTITYQPAASTKACEQALGK | 2.37
MELLRTITYQPAASTKNCEQALGK | 2.19
MELLRTITYQPAASTKFCEQALGK | 1.52
MELLRTITYQPAASTKKCEQALGK | 2.98
MELLRTITYQPAASTKHCEQALGK | 2.26
MELLRTITYQPAASTKPCEQALGK | 2.04
MELLRTITYQPAASTKVCEQALGK | 2.98
MELLRTITYQPAASTKGCEQALGK | 1.53
MELLRTITYQPAASTKSCEQALGK | 2.33
MELLRTITYQPAASTKCCEQALGK | 2.07
MELLRTITYQPAASTKTCEQALGK | 2.74
MELLRTITYQPAASTKQCEQALGK | 2.65
MELLRTITYQPAASTKMCNQALGK | 2.28
MELLRTITYQPAASTKMCFQALGK | 2.15
MELLRTITYQPAASTKMCLQALGK | 2.52
MELLRTITYQPAASTKMCHQALGK | 2.09
MELLRTITYQPAASTKMCVQALGK | 2.46

Variant | protein stability index
MELLRTITYQPAASTKMCYQALGK | 2.82
MELLRTITYQPAASTKMCGQALGK | 2.87
MELLRTITYQPAASTKMCCQALGK | 2.09
MELLRTITYQPAASTKMCKQALGK | 2.63
MELLRTITYQPAASTKMCDQALGK | 2.27
MELLRTITYQPAASTKMCPQALGK | 3.73
MELLRTITYQPAASTKMCAQALGK | 2.59
MELLRTITYQPAASTKMCIQALGK | 2.42
MELLRTITYQPAASTKMCSQALGK | 1.38
MELLRTITYQPAASTKMCQQALGK | 1.52
MELLRTITYQPAASTKMCRQALGK | 2.59
MELLRTITYQPAASTKMCTQALGK | 2.84
MELLRTITYQPAASTKMCEQAAGK | 2.29
MELLRTITYQPAASTKMCEQAKGK | 1.66
MELLRTITYQPAASTKMCEQAWGK | 2.86
MELLRTITYQPAASTKMCEQASGK | 1.52
MELLRTITYQPAASTKMCEQAMGK | 1.57
MELLRTITYQPAASTKMCEQATGK | 2.43
MELLRTITYQPAASTKMCEQAFGK | 2.92
MELLRTITYQPAASTKMCEQAIGK | 2.42
MELLRTITYQPAASTKMCEQACGK | 2.54
MELLRTITYQPAASTKMCEQAHGK | 3.36
MELLRTITYQPAASTKMCEQADGK | 1.87
MELLRTITYQPAASTKMCEQAGGK | 3.33

Variant | protein stability index
MELLRTITYQPAASTKMCEQARGK | 1.89
MELLRTITYQPAASTKMCEQAPGK | 1.79
MELLRTITYQPAASTKMCEQAVGK | 2.82
MELLRTITYQPAASTKMCEQAQGK | 2.02
MELLRTITYQPAASTKMCEQAYGK | 2.79
MELLRTITYQPAASTKMCEQAEGK | 2.21
MELLRTITYQPAASTKMCEQANGK | 2.31
MELLRTITYQPAACTKMCEQALGK | 2.5
MELLRTITYQPAAWTKMCEQALGK | 3.03
MELLRTITYQPAAVTKMCEQALGK | 2.44
MELLRTITYQPAAKTKMCEQALGK | 2.24
MELLRTITYQPAAATKMCEQALGK | 3.14
MELLRTITYQPAALTKMCEQALGK | 1.64
MELLRTITYQPAAQTKMCEQALGK | 2.5
MELLRTITYQPAAGTKMCEQALGK | 1.9
MELLRTITYQPAAMTKMCEQALGK | 2.33
MELLRTITYQPAAFTKMCEQALGK | 2.49
MELLRTITYQPAAPTKMCEQALGK | 1.5
MELLRTITYQPAADTKMCEQALGK | 1.68
MELLRTITYQPAARTKMCEQALGK | 2.05
MELLRTITYQPAAITKMCEQALGK | 1.61
MELLRTITYQPAANTKMCEQALGK | 3.48
MELLRTITYQPAATTKMCEQALGK | 2.5
MELLRTITYQPAAHTKMCEQALGK | 3.11

Variant | protein stability index
MELLRTITYQPAAETKMCEQALGK | 2.3
MELLRTITYQPAAYTKMCEQALGK | 3.88
MELLRTITYQPAASTKMCEIALGK | 2.18
MELLRTITYQPAASTKMCEFALGK | 2.08
MELLRTITYQPAASTKMCEDALGK | 1.95
MELLRTITYQPAASTKMCEKALGK | 2.22
MELLRTITYQPAASTKMCEGALGK | 2.7
MELLRTITYQPAASTKMCEVALGK | 1.6
MELLRTITYQPAASTKMCECALGK | 3.11
MELLRTITYQPAASTKMCESALGK | 1.75
MELLRTITYQPAASTKMCEHALGK | 2.51
MELLRTITYQPAASTKMCELALGK | 2.38
MELLRTITYQPAASTKMCEPALGK | 2.62
MELLRTITYQPAASTKMCEWALGK | 2.02
MELLRTITYQPAASTKMCETALGK | 3.59
MELLRTITYQPAASTKMCEAALGK | 2.63
MELLRTITYQPAASTKMCENALGK | 1.69
MELLRTITYQPAASTKMCERALGK | 2.71
MELLRTITYQPAASTKMCEMALGK | 3.03
MELLRTITYQPAASTKMCEYALGK | 2.58
MELLRTITYQPAASTKMCEEALGK | 1.78
MELLRTITYQPAASTVMCEQALGK | 1.96
MELLRTITYQPAASTFMCEQALGK | 1.83
MELLRTITYQPAASTAMCEQALGK | 2.13

Variant | protein stability index
MELLRTITYQPAASTGMCEQALGK | 1.81
MELLRTITYQPAASTPMCEQALGK | 2.02
MELLRTITYQPAASTNMCEQALGK | 2.01
MELLRTITYQPAASTIMCEQALGK | 2.61
MELLRTITYQPAASTRMCEQALGK | 2.07
MELLRTITYQPAASTDMCEQALGK | 2.38
MELLRTITYQPAASTWMCEQALGK | 2.05
MELLRTITYQPAASTYMCEQALGK | 3.02
MELLRTITYQPAASTEMCEQALGK | 2.18
MELLRTITYQPAASTTMCEQALGK | 2.55
MELLRTITYQPAASTSMCEQALGK | 2.34
MELLRTITYQPAASTLMCEQALGK | 1.84
MELLRTITYQPAASTMMCEQALGK | 1.85
MELLRTITYQPAASTQMCEQALGK | 2.22
MELLRTITYQPAASTCMCEQALGK | 2.95
MELLRTITYQPAASTHMCEQALGK | 1.76
MELLRTITYQPARSTKMCEQALGK | 2.39
MELLRTITYQPAMSTKMCEQALGK | 2.88
MELLRTITYQPATSTKMCEQALGK | 1.15
MELLRTITYQPASSTKMCEQALGK | 3.29
MELLRTITYQPAWSTKMCEQALGK | 1.82
MELLRTITYQPAQSTKMCEQALGK | 3.13
MELLRTITYQPAPSTKMCEQALGK | 1.74
MELLRTITYQPAYSTKMCEQALGK | 2.42

Variant | protein stability index
MELLRTITYQPAISTKMCEQALGK | 1.82
MELLRTITYQPALSTKMCEQALGK | 2.43
MELLRTITYQPAVSTKMCEQALGK | 1.96
MELLRTITYQPAKSTKMCEQALGK | 2.61
MELLRTITYQPANSTKMCEQALGK | 2.54
MELLRTITYQPAASCKMCEQALGK | 2.07
MELLRTITYQPAASYKMCEQALGK | 2.83
MELLRTITYQPAASHKMCEQALGK | 3.23
MELLRTITYQPAASQKMCEQALGK | 2.87
MELLRTITYQPAASVKMCEQALGK | 1.54
MELLRTITYQPAASKKMCEQALGK | 1.68
MELLRTITYQPAASRKMCEQALGK | 1.44
MELLRTITYQPAASWKMCEQALGK | 3.77
MELLRTITYQPAASEKMCEQALGK | 2.53
MELLRTITYQPAASAKMCEQALGK | 2.17
MELLRTITYQPAASGKMCEQALGK | 2.53
MELLRTITYQPAASLKMCEQALGK | 2.23
MELLRTITYQPAASPKMCEQALGK | 1.58
MELLRTITYQPAASFKMCEQALGK | 1.79
MELLRTITYQPAASSKMCEQALGK | 2.41
MELLRTITYQPAASNKMCEQALGK | 2.46
MELLRTITYQPAASIKMCEQALGK | 2.39
MELLRTITYQPAASMKMCEQALGK | 2.87
MELLRTITYQPAASDKMCEQALGK | 2.95

Variant | protein stability index
MELLRTITYQPAASTKMCEQELGK | 2.46
MELLRTITYQPAASTKMCEQQLGK | 2.98
MELLRTITYQPAASTKMCEQKLGK | 1.51
MELLRTITYQPAASTKMCEQWLGK | 3.26
MELLRTITYQPAASTKMCEQNLGK | 2.22
MELLRTITYQPAASTKMCEQMLGK | 2.21
MELLRTITYQPAASTKMCEQRLGK | 2.69
MELLRTITYQPAASTKMCEQGLGK | 2.42
MELLRTITYQPAASTKMCEQDLGK | 2.17
MELLRTITYQPAASTKMCEQYLGK | 2.16
MELLRTITYQPAASTKMCEQILGK | 3.11
MELLRTITYQPAASTKMCEQFLGK | 1.94
MELLRTITYQPAASTKMCEQPLGK | 2.28
MELLRTITYQPAASTKMCEQVLGK | 2.5
MELLRTITYQPAASTKMCEQCLGK | 2.68
MELLRTITYQPAASTKMCEQSLGK | 2
MELLRTITYQPAASTKMCEQHLGK | 1.94
MELLRTITYQPAASTKMCEQLLGK | 2.7
MELLRTITYQPAASTKMCEQTLGK | 2.79
MELLRTITYQPAASTKMDEQALGK | 1.94
MELLRTITYQPAASTKMIEQALGK | 2.49
MELLRTITYQPAASTKMGEQALGK | 3
MELLRTITYQPAASTKMQEQALGK | 1.57
MELLRTITYQPAASTKMFEQALGK | 2.19

Variant | protein stability index
MELLRTITYQPAASTKMHEQALGK | 2.34
MELLRTITYQPAASTKMMEQALGK | 2.67
MELLRTITYQPAASTKMPEQALGK | 3.07
MELLRTITYQPAASTKMEEQALGK | 1.96
MELLRTITYQPAASTKMNEQALGK | 1.95
MELLRTITYQPAASTKMSEQALGK | 2.81
MELLRTITYQPAASTKMVEQALGK | 2.26
MELLRTITYQPAASTKMLEQALGK | 2.71
MELLRTITYQPAASTKMTEQALGK | 2.67
MELLRTITYQPAASTKMKEQALGK | 1.61
MELLRTITYQPAASTKMWEQALGK | 2.17
MELLRTITYQPAASTKMREQALGK | 2.85
MELLRTITYQPAASTKMYEQALGK | 1.01
MELLRTITYQPAASTKMAEQALGK | 3.42
MELLRTITYQPAASTKMCEQALAK | 2.64
MELLRTITYQPAASTKMCEQALFK | 2.36
MELLRTITYQPAASTKMCEQALCK | 2.96
MELLRTITYQPAASTKMCEQALEK | 2.22
MELLRTITYQPAASTKMCEQALHK | 2.88
MELLRTITYQPAASTKMCEQALDK | 1.93
